Experiments:
[1] = biological target: T1, Cynomolgus monkey (Macaca fascicularis) LILRB ectodomain fused to mIgG2a (cynomolgus monkey (Macaca fascicularis)); experiment: summary table (ELISA); Rhesus & Cyno LILRB1/2 binding; Y = Yes
T1 construct: also called cynomolgus LILRB protein

[2] = biological target: T2, Rhesus monkey (Macaca mulatta) LILRB ectodomain fused to mIgG2a Fc (rhesus monkey (Macaca mulatta)); experiment: as above
T2 construct: also called rhesus LILRB-mIgG2a; rhesus LILRB protein

[3] = biological target: LILRA4 recombinant, full-length ectodomain (LILRA4 24-446) (human, UniProt P59901 24-446); experiment: multi-point ELISA, antigen coated, apparent EC50
Experimental: (§1) FIG. 32. Binding of Clones 1-5 to selected LILR family members tested by multiple point ELISA. Recombinant LILRB1, LILRB2, LILRB3, LILRA1, LILRA3, LILRA4, and LILRA6, or irrelevant control protein were coated on the ELISA plates. The plates were then blocked with milk in PBST. Next, the plates were incubated with serial dilutions (12.5 nM to 0.02 nM) of Clones 1-5 (A-E). Bound antibodies were detected using HRP-conjugated anti-human Fc antibodies and the chromogenic substrate.
as §1, with “Binding of” for “FIG. 32. Binding of”, “point ELISA. (FIG. 32) Recombinant LILRB1,” for “point ELISA. Recombinant LILRB1,”, “LILRA3, LILRA4, LILRA6, or” for “LILRA3, LILRA4, and LILRA6, or”, “nM) of Clone 1-5 (A-E).” for “nM) of Clones 1-5 (A-E).”

[4] = biological target: LILRB1 recombinant, full-length ectodomain (human, UniProt Q8NHL6 24-461); experiment: multi-point ELISA, antigen coated, apparent EC50
Experimental: as §1
as §1, with “Binding of” for “FIG. 32. Binding of”, “point ELISA. (FIG. 32) Recombinant LILRB1,” for “point ELISA. Recombinant LILRB1,”, “LILRA3, LILRA4, LILRA6, or” for “LILRA3, LILRA4, and LILRA6, or”, “nM) of Clone 1-5 (A-E).” for “nM) of Clones 1-5 (A-E).”

[5] = biological target: LILRB2 recombinant, full-length ectodomain (LILRB2 22-458) (human, UniProt Q8N423 22-458); experiment: multi-point ELISA, antigen coated, apparent EC50
Experimental: as §1
as §1, with “Binding of” for “FIG. 32. Binding of”, “point ELISA. (FIG. 32) Recombinant LILRB1,” for “point ELISA. Recombinant LILRB1,”, “LILRA3, LILRA4, LILRA6, or” for “LILRA3, LILRA4, and LILRA6, or”, “nM) of Clone 1-5 (A-E).” for “nM) of Clones 1-5 (A-E).”

Human full length LILRA3 = biological target: T3, Human full length LILRA3 (human, UniProt Q8N6C8 24-439); experiment: multi-point ELISA, antigen coated, apparent EC50
T3 construct: Commercial recombinant protein; also the parent of the LILRA3 peptide microarrays
Experimental: as §1
as §1, with “Binding of” for “FIG. 32. Binding of”, “point ELISA. (FIG. 32) Recombinant LILRB1,” for “point ELISA. Recombinant LILRB1,”, “LILRA3, LILRA4, LILRA6, or” for “LILRA3, LILRA4, and LILRA6, or”, “nM) of Clone 1-5 (A-E).” for “nM) of Clones 1-5 (A-E).”

[6] = biological target: LILRA6 recombinant, full-length ectodomain (LILRA6 24-447) (human, UniProt Q6PI73 24-447); experiment: multi-point ELISA, antigen coated, apparent EC50
Experimental: as §1
as §1, with “Binding of” for “FIG. 32. Binding of”, “point ELISA. (FIG. 32) Recombinant LILRB1,” for “point ELISA. Recombinant LILRB1,”, “LILRA3, LILRA4, LILRA6, or” for “LILRA3, LILRA4, and LILRA6, or”, “nM) of Clone 1-5 (A-E).” for “nM) of Clones 1-5 (A-E).”

Human LILRA1 ectodomain = biological target: T4, Human LILRA1 ectodomain (human, UniProt O75019 17-461); experiment: multi-point ELISA, antigen coated, apparent EC50
T4 construct: Recombinant protein from a commercial source
Experimental: as §1
as §1, with “Binding of” for “FIG. 32. Binding of”, “point ELISA. (FIG. 32) Recombinant LILRB1,” for “point ELISA. Recombinant LILRB1,”, “LILRA3, LILRA4, LILRA6, or” for “LILRA3, LILRA4, and LILRA6, or”, “nM) of Clone 1-5 (A-E).” for “nM) of Clones 1-5 (A-E).”

Chain of LILRB1 recombinant, full-length ectodomain (Q8NHL6 24-461 limits assumed): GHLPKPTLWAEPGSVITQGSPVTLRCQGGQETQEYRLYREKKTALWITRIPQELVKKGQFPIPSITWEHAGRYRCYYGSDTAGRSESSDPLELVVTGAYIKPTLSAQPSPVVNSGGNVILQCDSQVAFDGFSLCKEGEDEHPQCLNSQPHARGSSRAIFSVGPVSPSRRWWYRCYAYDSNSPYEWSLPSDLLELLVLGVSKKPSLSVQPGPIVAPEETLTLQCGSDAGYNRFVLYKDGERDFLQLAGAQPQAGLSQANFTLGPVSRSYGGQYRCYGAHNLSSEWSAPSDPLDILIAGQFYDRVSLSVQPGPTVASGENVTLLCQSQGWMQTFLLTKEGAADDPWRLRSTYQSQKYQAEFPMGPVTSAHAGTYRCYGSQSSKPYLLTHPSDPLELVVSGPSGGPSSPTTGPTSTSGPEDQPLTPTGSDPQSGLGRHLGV
Chain of LILRA6 recombinant, full-length ectodomain (LILRA6 24-447) (Q6PI73 24-447): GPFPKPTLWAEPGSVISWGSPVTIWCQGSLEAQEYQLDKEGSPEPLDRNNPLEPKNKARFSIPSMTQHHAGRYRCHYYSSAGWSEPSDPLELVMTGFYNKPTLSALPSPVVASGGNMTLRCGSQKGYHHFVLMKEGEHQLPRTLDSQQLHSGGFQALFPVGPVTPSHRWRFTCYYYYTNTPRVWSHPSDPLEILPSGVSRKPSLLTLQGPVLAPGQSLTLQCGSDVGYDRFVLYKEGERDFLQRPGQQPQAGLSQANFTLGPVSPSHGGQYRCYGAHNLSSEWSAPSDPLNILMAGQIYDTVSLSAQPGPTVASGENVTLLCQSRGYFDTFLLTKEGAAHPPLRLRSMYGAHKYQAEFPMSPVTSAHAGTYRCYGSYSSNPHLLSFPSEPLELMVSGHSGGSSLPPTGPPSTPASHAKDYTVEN
T4 sequence (O75019 17-461): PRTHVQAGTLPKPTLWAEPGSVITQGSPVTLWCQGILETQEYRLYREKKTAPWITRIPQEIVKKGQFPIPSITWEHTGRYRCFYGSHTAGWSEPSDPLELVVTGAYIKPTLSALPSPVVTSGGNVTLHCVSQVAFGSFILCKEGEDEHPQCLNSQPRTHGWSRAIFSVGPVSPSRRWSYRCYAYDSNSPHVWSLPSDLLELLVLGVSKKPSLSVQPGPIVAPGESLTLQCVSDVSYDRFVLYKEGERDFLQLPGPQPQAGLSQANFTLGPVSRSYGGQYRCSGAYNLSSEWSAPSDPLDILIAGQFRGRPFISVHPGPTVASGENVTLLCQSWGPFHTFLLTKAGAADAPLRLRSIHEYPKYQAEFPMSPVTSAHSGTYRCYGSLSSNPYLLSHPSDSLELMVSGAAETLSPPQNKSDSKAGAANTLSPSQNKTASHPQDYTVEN
T1 sequence (chain, as listed by the source limits assumed): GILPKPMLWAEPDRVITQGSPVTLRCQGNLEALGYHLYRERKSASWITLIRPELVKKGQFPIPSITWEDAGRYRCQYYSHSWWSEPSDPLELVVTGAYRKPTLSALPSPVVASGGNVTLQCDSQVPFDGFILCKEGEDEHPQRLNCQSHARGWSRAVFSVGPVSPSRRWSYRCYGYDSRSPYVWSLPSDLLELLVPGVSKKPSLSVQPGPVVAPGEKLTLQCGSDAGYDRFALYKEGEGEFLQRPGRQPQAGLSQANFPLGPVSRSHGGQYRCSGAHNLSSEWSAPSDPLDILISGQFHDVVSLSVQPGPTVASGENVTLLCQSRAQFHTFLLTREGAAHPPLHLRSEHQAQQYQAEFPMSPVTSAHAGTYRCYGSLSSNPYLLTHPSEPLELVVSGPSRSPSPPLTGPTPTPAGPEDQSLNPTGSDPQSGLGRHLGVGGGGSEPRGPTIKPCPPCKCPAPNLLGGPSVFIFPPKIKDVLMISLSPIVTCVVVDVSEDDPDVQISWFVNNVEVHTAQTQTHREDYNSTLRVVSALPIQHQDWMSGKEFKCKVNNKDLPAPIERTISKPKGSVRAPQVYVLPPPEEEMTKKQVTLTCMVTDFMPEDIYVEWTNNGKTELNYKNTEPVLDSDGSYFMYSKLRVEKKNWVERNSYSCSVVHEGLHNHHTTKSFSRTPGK
Chain of LILRA4 recombinant, full-length ectodomain (LILRA4 24-446) (P59901 24-446): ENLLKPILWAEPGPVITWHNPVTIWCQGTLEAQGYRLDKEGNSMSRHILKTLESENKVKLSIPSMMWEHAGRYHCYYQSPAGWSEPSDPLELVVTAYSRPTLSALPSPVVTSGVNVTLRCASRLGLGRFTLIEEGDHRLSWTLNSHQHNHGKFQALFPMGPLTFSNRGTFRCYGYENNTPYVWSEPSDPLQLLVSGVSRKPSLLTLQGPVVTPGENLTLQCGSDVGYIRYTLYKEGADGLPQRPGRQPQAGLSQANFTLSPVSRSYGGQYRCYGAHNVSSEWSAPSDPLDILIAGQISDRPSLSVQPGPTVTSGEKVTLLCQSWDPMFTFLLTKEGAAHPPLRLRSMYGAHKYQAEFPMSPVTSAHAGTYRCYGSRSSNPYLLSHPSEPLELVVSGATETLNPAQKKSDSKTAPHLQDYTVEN
Chain of LILRB2 recombinant, full-length ectodomain (LILRB2 22-458) (Q8N423 22-458): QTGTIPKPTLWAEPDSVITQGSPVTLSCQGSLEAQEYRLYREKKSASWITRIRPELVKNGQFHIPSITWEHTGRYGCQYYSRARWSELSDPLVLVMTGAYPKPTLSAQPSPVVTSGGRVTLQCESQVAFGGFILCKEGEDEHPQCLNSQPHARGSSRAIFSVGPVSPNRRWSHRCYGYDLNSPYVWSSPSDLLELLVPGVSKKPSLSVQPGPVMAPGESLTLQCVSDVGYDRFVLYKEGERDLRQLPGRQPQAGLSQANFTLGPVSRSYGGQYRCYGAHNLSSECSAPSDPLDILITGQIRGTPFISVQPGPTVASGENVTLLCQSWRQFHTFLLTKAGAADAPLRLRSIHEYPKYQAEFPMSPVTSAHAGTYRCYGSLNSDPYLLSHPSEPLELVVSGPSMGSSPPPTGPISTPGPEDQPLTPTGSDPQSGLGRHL
T3 sequence (Q8N6C8 24-439 A105V limits assumed): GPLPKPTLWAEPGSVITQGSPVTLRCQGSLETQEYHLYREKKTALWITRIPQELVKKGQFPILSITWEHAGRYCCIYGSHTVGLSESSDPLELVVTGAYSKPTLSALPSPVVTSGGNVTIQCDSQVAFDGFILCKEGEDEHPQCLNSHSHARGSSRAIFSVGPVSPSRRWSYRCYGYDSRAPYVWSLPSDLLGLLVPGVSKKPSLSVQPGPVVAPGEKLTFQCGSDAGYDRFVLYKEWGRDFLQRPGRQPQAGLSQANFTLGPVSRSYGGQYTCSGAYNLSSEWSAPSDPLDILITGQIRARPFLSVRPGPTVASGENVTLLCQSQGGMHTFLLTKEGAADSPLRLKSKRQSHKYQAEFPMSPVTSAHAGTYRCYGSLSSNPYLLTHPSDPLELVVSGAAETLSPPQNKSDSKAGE
T2 sequence (chain, as listed by the source limits assumed): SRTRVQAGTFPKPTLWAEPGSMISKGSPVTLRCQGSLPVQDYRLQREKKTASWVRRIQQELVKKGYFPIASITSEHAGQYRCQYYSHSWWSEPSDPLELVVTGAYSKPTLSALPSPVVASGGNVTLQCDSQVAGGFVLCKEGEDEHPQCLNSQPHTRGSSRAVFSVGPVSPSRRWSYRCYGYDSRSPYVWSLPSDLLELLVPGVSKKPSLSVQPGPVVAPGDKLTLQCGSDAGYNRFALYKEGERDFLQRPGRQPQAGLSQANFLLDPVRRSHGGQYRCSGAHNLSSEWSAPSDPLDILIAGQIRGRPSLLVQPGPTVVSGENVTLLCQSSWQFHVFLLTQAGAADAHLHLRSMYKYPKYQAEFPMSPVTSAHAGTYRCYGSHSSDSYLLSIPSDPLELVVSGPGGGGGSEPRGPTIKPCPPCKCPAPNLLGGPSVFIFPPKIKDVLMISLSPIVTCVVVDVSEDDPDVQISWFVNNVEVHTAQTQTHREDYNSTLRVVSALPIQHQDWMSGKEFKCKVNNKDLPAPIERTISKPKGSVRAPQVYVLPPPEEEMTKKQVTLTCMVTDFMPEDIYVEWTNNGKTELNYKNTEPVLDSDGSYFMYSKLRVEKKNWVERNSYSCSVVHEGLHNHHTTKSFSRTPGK

| Binder | binding result [1] | binding result [2] | EC50 [3] [nM] | EC50 [4] [nM] | EC50 [5] [nM] | EC50 (Human full length LILRA3) [nM] | EC50 [6] [nM] | EC50 (Human LILRA1 ectodomain) [nM] |
| --- | --- | --- | --- | --- | --- | --- | --- | --- |
| Antibody 3 (antibody, V domains shown, Fully human antibody; IgG4; also called Clone 3; Antibody Clone 3) VH: QVQLVQSGAEVKKPGASVKVSCKASGYTFTSYGISWVRQAPGQGLEWMGWISAYNGNTNYAQKLQGRVTMTTDTSTSTAYMELRSLRSDDTAVYYCARSYSGSHWWFDPWGQGTLVTVSS VL: not shown | binds | binds | 1.15 | 1.38 | 1.28 | 1.2 | 1.69 | 1.76 |
| Antibody 4 (antibody, V domains shown, Fully human antibody; IgG4; also called Clone 4; Antibody Clone 4) VH: QVQLVQSGAEVKKPGASVKVSCKASGYTFTSYGISWVRQAPGQGLEWMGWISAYNGNTNYAQKLQGRVTMTTDTSTSTAYMELRSLRSDDTAVYYCARSYSGSYWWFDPWGQGTLVTVSS VL: not shown | binds | binds | 1.38 | 1.24 | 1.39 | 1.42 | 2.2 | 4.1 |
| Antibody 1 (antibody, V domains shown, Fully human antibody expressed in CHO; also called Clone 1; Antibody Clone 1) VH: QVQLVESGGGLVKPGGSLRLSCAASGFTFSDYYMSWIRQAPGKGLEWVSYISSSGSIKKYADSVKGRFTISRDNAKNSLYLQMNSLRGEDTAVYYCARTNWHFDYWGQGTLVTVSS VL: EIVLTQSPGTLSLSPGERATLSCRASQSVSSSYLAWYQQKPGQAPRLLIFGASTRATGIPDRFSGSGSGTDFTLTISRLEPEDVAVYYCQQYYSTPFTFGPGTKVDIK | binds | binds | 0.81 | 0.55 | 0.73 | 0.97 | 1.81 | 2.38 |
| Antibody 5 (antibody, V domains shown, Fully human antibody; IgG4; also called Clone 5; Antibody Clone 5) VH: QVQLVESGGGLVKPGGSLRLSCAASGFTFSDYYMTWIRQAPGKGLEWVSYISISGITRYYADSVKGRFTISRDNAKNSLYLQMNSLRAEDTAVYYCARDQTGYFDYWGQGTLVTVSS VL: DIVMTQSPATLSVSPGEKTTLSCRASQSFSSNLAWYQQKPGQAPRLLIYGASTRATGIPARFSGSGSGTEFTLTISSLQSEDFAVYYCQQYINWPHTFGQGTKVEIK | binds | binds | 0.84 | 0.99 | 1.04 | 1.26 | 0.97 | 9.07 |
